Article PMC2893164, “Structural Basis of Gate-DNA Breakage and Resealing by Type II Topoisomerases” (PLoS ONE, 2010)

B1: S. pneumoniae ParC breakage-reunion domain (ParC55, residues 1-488) (domain or fragment, Streptococcus pneumoniae, UniProt P72525 1-488, looked up)
chain: MSNIQNMSLEDIMGERFGRYSKYIIQDRALPDIRDGLKPVQRRILYSMNKDSNTFDKSYRKSAKSVGNIMGNFHPHGDSSIYDAMVRMSQNWKNREILVEMHGNNGSMDGDPPAAMRYTEARLSEIAGYLLQDIEKKTVPFAWNFDDTEKEPTVLPAAFPNLLVNGSTGISAGYATDIPPHNLAEVIDAAVYMIDHPTAKIDKLMEFLPGPDFPTGAIIQGRDEIKKAYETGKGRVVVRSKTEIEKLKGGKEQIVIIEIPYEINKANLVKKIDDVRVNNKVAGIAEVRDESDRDGLRIAIELKKDANTELVLNYLFKYTDLQINYNFNMVAIDNFTPRQVGIVPILSSYIAHRREVILARSRFDKEKAEKRLHIVEGLIRVISILDEVIALIRASENKADAKENLKVSYDFTEEQAEAIVTLQLYRLTNTDVVVLQEEEAELREKIAMLAAIIGDERTMYNLMKKELREVKKKFATPRLSSLEDTAKA
modifications: Tyr 118 linked covalently to the 5' phosphate end of the cleaved DNA (in the cleaved complexes; not in the resealed complex)
notes: Topoisomerase IV subunit ParC, Streptococcus pneumoniae, breakage-reunion domain, residues 1-488; also called topoisomerase IV subunit ParC; source: E. coli, over-expressed, purified as described previously
B2: S. pneumoniae ParE TOPRIM domain (ParE30, residues 404-647) (domain or fragment, Streptococcus pneumoniae, UniProt Q59961 404-647, looked up)
chain: KNKKDKGLLSGKLTPAQSKNPAKNELYLVEGDSAGGSAKQGRDRKFQAILPLRGKVVNTAKAKMADILKNEEINTMIYTIGAGVGADFSIEDANYDKIIIMTDADTDGAHIQTLLLTFFYRYMRPLVEAGHVYIALPPLYKMSKGKGKKEEVAYAWTDGELEELRKQFGKGATLQRYKGLGEMNADQLWETTMNPETRTLIRVTIEDLARAERRVNVLMGDKVEPRRKWIEDNVKFTLEETTVF
notes: Topoisomerase IV subunit ParE, Streptococcus pneumoniae, TOPRIM domain, residues 404-647; also called topoisomerase IV subunit ParE; source: E. coli, over-expressed, purified as described previously

Columns and labels:
[1] = biological target: the molecule itself; experiment: crystal structure; ParC55 and ParE30 (equimolar, 4 mg/ml) co-crystallised with the 34-bp E-site DNA (1:1:1.2) and quinazolinedione PD 0305970, 20 mM MgCl2, pH 7.0; 3.1 A; the same crystals back-soaked and soaked with levofloxacin (2.9 A), EDTA (3.3 A) or EDTA then Mg2+ (3.5 A)
[2] = biological target: B1; experiment: as above; conditions: both partners purified

Binder | stoichiometry N [1] | binding result [2]
B1 | 2 | –
B2 | – | binds
